Values quoted from earlier work as cited in US6126956A, “Subcutaneous implant” (priority 1998, dated 2000).
Like-named read-outs stand apart in the source and are kept apart here.

Settings: coated EVA with hole in one face, or coated hemisphere with exposed cavity

| Substance | release kinetics from prior polymer devices | release kinetics from prior polymer devices (listed as insulin) |
| --- | --- | --- |
| Insulin | near constant release rates | zero order kinetics |
| albumin | zero order kinetics | – |
